# From the nanobody polyreactivity screen of Harvey et al. (2022)
# Experiment: yeast display, Sf9 membrane polyspecificity reagent, FACS + sequencing; frameworks hold sequencing errors
# How it was run: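 Using colony PCR, genes from sorted yeast display clones were amplified, then sequenced on MiSeq at 2 × 250 and filtered by CDR length. The clones had been stained with 10% biotinylated, detergent-solubilized Sf9 membrane reagent for 1 hour at 4 °C and sorted by FACS into low and high (top ~1%) gates on anti-HA and streptavidin fluorescence. Polyreactivity labels come from the gate of origin.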
row,Sequence,polyreactivity (PSR sort gate)
1,QVQLVESGGGLVQAGGSLRLSCAASGSIFDVYAMGWYRPAPGKERELVATISYGDSSTYYADSVKGRFTISRDNAKNTVYFQMNSLKPEDTAVYYCAADYLTAPRWRLLGEMEYWGQGTQVTVSS,low polyreactivity
2,QVQLVESGGGLVQAGGSLRLSCAASGTMPGYAMGWYRQAPGKERELVAAITWSDDSTFYADSVKGRFTISRDNAKNTVYLQMNSLKPEDTAVYYCAAEYVVSTQEFDYCGQGTQVTVSS,low polyreactivity
3,QVQLVESGGGLVQAGGSLRLSCAASGFIFNAYAMGWYRQAPGKERELVAAISTRCSNTYYADSVKGRFTISRDNAMNTVFLQMNSLIPEDTAVYYCAARGYVTYSKSNYWGQGTQVTVSS,high polyreactivity
4,QVQLEDSRGGLVQAGGSLRLSCAASGLILASYAMGWNRQAQGKERQLVSAISRSGGSTYYEDSVKVRFTISRDNAKITVYLQMKSLKPEHTAVYYFAAKYPPKTPVNTYGNSFYYWGQGTQVTVSS,low polyreactivity
5,QDQLVESGGGLVQAGGSLRLSCAASGSIFGPYAMGWYRQAPGKERELVAAITYRGDSTYYADSVKGRFTISRDYAKNTVYLQMNSLKPEDTAVYYCAAEYIYDLWEEYWGQGTQVTVSS,high polyreactivity
6,QVQLVESGGGLVQAGGSLRLSCAASGNIFPYYAMGWYRQAPGKERELVASISRSGGSTYYADSVKGRFTISRDNAKNTVYLQMNSLKPEDTAVYYCAKRTPYYGFGFFHPARGYGYWGQGTQVTVSS,low polyreactivity
7,QVQLVESGGGLVQAGGSLRLSCAASGSTYYYAMGWYRQAPGKEREFVAAISRDGSSTYYADSVKGRFTISRDNAKYTVYLQMNSLKPEDTAVYYCAASIIRFSTSADKLVTSRYYYWGQGTQVTVSS,high polyreactivity
8,QVQLVESGGGLVQAGGSLRLSCAASGSTFLRNAMGWYRQAPGKERELVATISTGSGRTYYADSVKGRFTISRDNAKNTVYLQMNSLKPEDTAVYYCATRVPLGPYYYGMYYWGQGTQVTVSS,high polyreactivity
9,QVQLQESGGGLVQAGGCLRLSCAASGSIFDPDYMGWYHQAPGKESELVASISLGRITYYADSVKGRFTINRDNAKNTVYLQMNSLKPEDTAVYYCAVRVETIYYYSYWGQGTQVTVSS,high polyreactivity
10,QVHLVESGGGLVQAGGSLRLSCAASGSIFSSYAMGWYRQATGKERELVASISSGGSTNYADSVKGRFTISRDNAKNTVYLQMNSLKPEDTAVYYCNVDLYNWRGDSTGYDYWGQGTQVTVSS,low polyreactivity
11,QVQLVESGGGLVQAGGSLRLSCAASGSISNYYGMGWYRQAPGKERELVAAITWGGGRTNYADSVKGRFTISRDNAKNTVYLQMNSLKPEDTAVYYCAKVSVTHRYGAGGDYWGQGTQVTVSS,low polyreactivity
12,QVQLVESGGGLVQAGGSLRLSCPDSGLIFVANAMGWYIQAPGKERELVAAISRSGGITYYADSVKGRFTISRDNATNTVYLKMNSLKPADTEVYYCAKTLPSNGHYDYWGQGTQVTVSS,low polyreactivity
13,QDQLVESGGGLVQAGGSLRLSCAASGITFPGYPMGWYRHAPGKEREFVAAISWGGVSTYYADSVMGRFTISRDNAKNTVYLQMNSLKPEDTAVYYCNAEYPWSVVGYDYWGQGTQVTVSS,low polyreactivity
14,QVQLVESGGGLVQAGGSLRLSCAASGYTFPLYAMGWYRQAPGKERELVADINIGGASTYYADSVKGRFTISRDNAKNTFYLQMKSLKPEDTAVYYCAKEYFDGFFPTFYYDYWGQGTQVTVSS,low polyreactivity
15,QVQLVESGGGLVQAGGSLRLSSAASGITFSKNAMGRYRQAPGKERELVAAISNSGGSTYYADSVKGRFTISRDNAKNTVYLQMNSVNPEDTAVYYCASDGGYAYGYNHWGQGTQVTVSS,low polyreactivity
16,QVQLVESGGGLVQAGGSLRLSCAASGRTFPGYAMGWYRQAPGKERELVAAISNSGGRTYYADSVKGRFTISRDNAKNTVYLQMNSLKPEDTAVYYCNALGRVRYSPRYGYDYWGQGTQVTVSS,high polyreactivity
17,QVQLVESGGGLVQAGGRLRLSSAASGFTFNKYGMGWYRQAPRKERELVAAISGSGGSTRYADSVKGRFTISRDNAKNTVYLLMNSLKPEDTAVYFCAKRSQTRYYYWGQGTQVTVSS,high polyreactivity
18,QVQLVESGGGLVQAGGSLRLTWEAYGFTFKYYPMGWYRQAPGKEWELVADITRSGGSTYYADSVKGRFTISRDNAKITVYLEMYILKPEDTAVYYCAVDPVRYQYSYDYWCQGTQVTVSS,high polyreactivity
19,QVQLVESGGGLVQAGGSLRLSCAASGSTLGRNVMGWYRQAPGKERELVAAISSRGSRTYYADSVKGRFTISRDNAKNTVYLQMNSLKPEDTAVYYCNRGWAHSNAKFDYWGQGTQVTVSS,high polyreactivity
20,QVQLVESGGGLVQAGGSLRLSCAASGRIFSRYAMGWYRQAPGKERELVASIRSGGSTYYADSVKGRFTIARDNAKNTVYVQMNSLKPEDTAVYYCAKGTFDLHYRKRYNYWGQGTQVTVSS,low polyreactivity
21,QVQLVESGGGLVQAGGSLRLSCAASGRIFGIYAMGWYRQAPGKERELVAVITRGDRTYADSVKGRFTISRDNAKNTVYLQMNSLKTEDTAVYYCNADTGYRFDYWGQGTQVTVSS,high polyreactivity
22,QVQLVESGGGLVQAGGSLRLSCAASGSIFGTYAMGWYRQAPGKERELVARITRGVSTNYADSVQGRFTISRDNAKNTVYLQMNSLKPEDTAVYYCAAESGNRYEYWGQGTQVTVSS,low polyreactivity

row,Sequence,polyreactivity (PSR sort gate)
1,QVQLVESGGGLVQAGGSLRLSCAASGSTFNIYAMGWYRQAPGKEREFVASIRWSGGSTYYADSVKGRFTISRDNAKNTVYLQMNSLKPEDTAVYYCAGRTFWGAYDYWGQGTQVTVSS,high polyreactivity
2,QVQLVESGGGLVQAGGSLLLTCAASGITFGLYAMGWYREAPGKERELVAAIFSGGITYYADSVKGRFTISRDNAKNTVYLQMNSRKPVDTAVYYCAAYKYSYKYYYWGQGTQVTVSS,low polyreactivity
3,QVQLVESGGGLVQAGGSLRLSCAASGRIFWHNAMGWYRQAPGTERELVAAITGGGSTYYADSVKGRFTISRDNAKNTVYLQMNSLKPEDTAVYYCATLGSLRYYWPGYDYWGQGTQVTVSS,low polyreactivity
4,QVQLVESGGGLVQAGGSLRLSCAASGLTFYYYVMGWYRQAPGKERELVAAINATGGRTYYADSVKGRFTISRDNAKNTVYLQMNSLKPEDTAVYYCAAYSGFYASYDYWGQGTLVTVSS,low polyreactivity
5,QVQLVESGGGLVQAGGSLRISCAPSGSTFIPNDMGWYRQAPGKERELVAAITVSGDDTYYADSVKGRFTISRDNAKNNVYVQMNILKPEVTAVYYCAAEWGLYVGQYEYWGQGTQVTVSS,low polyreactivity
6,QVQLVESGGGLVQAGGSLRLSCAASGSISVYNAMGWYRQAPGTERELVAAISWSGGRTSYADSVKGRFTISRDNAKNTVYLQMNSLKPEDTAVYYCAADELTVLWDEDYWGQGTQVTVSS,low polyreactivity
7,QVQLVESGGGLVQAGGSLRLSCAASGFTFAGYAMGWYRQAPGKERELVAVITSSDSTYYADSVKGLFTISRDNAKNTDYLQMNSLKPEDTAVYYSAVRSYVNWWSIVKYDYWGQGTQVTVSS,low polyreactivity
8,QVQLVESGGGLVQAGGSLRLSCAASGSTFFRYAMGWYRQAPGKEREFVAAITWSGTGTYYADSVKGRFTISRDNAKNTVYLQMNSLKPEDTAVYYCNAEPFDLWAFYYGYVYGYYHWGQGTQVTVSS,high polyreactivity
9,QVQLVESGGGLDQAGGSLRLSCAASGSNFSGWYTMGWYRQAPGKERELVASISISTTDTYYADSVKGRFTISRDNAKKTVYVQMNSLKPEDTAVYYCAAYGWDHVIVEYDYWGQGTQVTVSS,low polyreactivity
10,QVQLVESGGGLVQAGGSLRLSCAASGRTFRTYNMGWYRQAPGKERELVAAISYSGGSTYYADSVKGRFTISRDNAKNTVYLQMNSLKPEDNAVYYCNARRYFWGFDYWGQGTQVNVSS,high polyreactivity
11,QVQLVESGGGLVQAGVSLRISCAASASILVTNAMGWYRHAPGKERELVAAITSIGGSTNYADSVKGRFTISRDNAKNTVYLQMNSLKPEDTAVYYCAAGIYPTVFWVYYWGQGTQVTVSS,low polyreactivity
12,QVQLVESGGGLVQAGGSLRLSCAASGRIFGVYAMGWYRQAPGKERELVASISDGTITNYADSVKGRFTISRDNAKNTVYLQMNSLKPEDTAVYYCAATWSFVYGDYFEYDYWGQGTQVTVSS,low polyreactivity
13,QVQLVESGGGLVQAGGSLRVSCAASGRIFDSYAMGWSRQAPGKERELVAVISNNDGTTYYADSVKGRFTISRDNAKTTVYLQMNSLKPEDTAVYYCNAVYSSGVDGSEGFDYWGQGTQVTVSS,low polyreactivity
14,QVQLVESGGGLVQAGGSLRLSCAASGSIFLGNAMGWYSPAPGKERELVAAISYSGGSTYYADSVKGRFTISRDNAKNTVYLQMNSLKPEDTDVYYCAADRSSQFDLDYWGQGTRVTVSS,low polyreactivity
15,QVQLVESGGCLVQAGGSLRLSCAASGITFYVYAMGWYRQAPGKESELVASITSGGGSTDYADSVKGRVTISRDNAKNTVYLQMNSLKPEDTAVYYCAARYPLLNQLYDFDYWGQGTQVTVSS,low polyreactivity
16,QVQLVESGGGLVQAGGSLRLSCAASGRTIRTYTMGWYRQAAGKERELVAAISWSGSSTYYADSVKGRFTISRDNAKNTVYLQMNSLKPEDTAVYYCAARGLYDYGYWGQGTQVTVSS,high polyreactivity
17,QVQLVDSGGGLVQAGGSLRLSCAASGRTFKRYDMGWYRQAPGKEREFVAAISWTGGSTYYADTVKGRFTISRDHAKNSVYLQMNSLKPEDTAVYYCARKFLWQGFVYWGQGTQVTVSS,low polyreactivity
18,QVQLVESGGGLVQAGGSLRLSCAASGSTFGTYAMGWYRQAPGKERELVAAISWSGGSTYYADSVKGRFTISRDKAKNTVYLQMNSLKPEDTAVYWGQGTQVTVSS,low polyreactivity
19,QVHLVESGGGLVPAGGSLRLSCPASGSIFYEYAMGWYRQPPGKERELVAAITVTSGSTYYADSVKGRFTISRDNAKNTVYLQMNSLKPEDTAVYYCASRIYHTYRFYYWGQGTQVTVSS,low polyreactivity
20,QVQLVESGGGLVQAGGSLRLSCAASGSISWLYAMGWYRQAPGKEREFVAAISESGDTYYADSVKGRFTISRDNAKNTVYLQMNSLKPEDTAVYYCAATRPDGVTYDYWGQGTQVTVSS,low polyreactivity
21,QAQLQESGGSLVKAGGGLRLSCAASGYISVGSVMGRYRQAPSKERELVASIDQGANTNYADSVKGRFTISRDNGKNNVYLQMNSLKPEDTAVYYCATETTYILNYWGQGTEVTVSS,low polyreactivity
